Reference: paper PMC9352680, “A comprehensive thermodynamic model for RNA binding by the Saccharomyces cerevisiae Pumilio protein PUF4”
Numbering of substitutions follows the chain as printed. Names may count otherwise.

B1: Id_ii_S2_P3E.3_K3.2_C3.2_[C-2A]_[T-1G]_H3.2_A3.1_F3.1_T3.2_[T9C]_[A10C] (ssRNA)
RNA: UUUGAUUAAUAUGAUAUCGUUCUUUCUAGUAUAUAUACCUUCUUUCUCGAUAUCAUAUUAAUCUUU
B2: Id_ii_S2_P3E.3_K3.2_C3.2_[C-2A]_[T-1G]_H3.2_A3.1_F3.1_T3.2_[T9A]_[A10C] (ssRNA)
RNA: B1 RNA with C38A
B3: Id_ii_S2_P3E.3_K3.2_C3.2_[C-2A]_[T-1G]_H3.2_A3.1_F3.1_T3.2_[T9A]_[A10T] (ssRNA)
RNA: B1 RNA with C38A, C39U
B4: Id_ii_S2_P3E.3_K3.2_C3.2_[C-2A]_[T-1G]_H3.2_A3.1_F3.1_T3.2_[T9A] (ssRNA)
RNA: B1 RNA with C38A, C39A
B5: Id_ii_S2_P3E.3_K3.2_C3.2_[C-2A]_[T-1G]_H3.2_A3.1_F3.1_T3.2_[A10T] (ssRNA)
RNA: B1 RNA with C38U, C39U
B6: Id_ii_S2_P3E.3_K3.2_C3.2_[C-2A]_[T-1C]_H3.2_A3.1_F3.1_T3.2_[T9G]_[A10C] (ssRNA)
RNA: B1 RNA with G29C, C38G
B7: Id_ii_S2_P3E.3_K3.2_C3.2_[C-2A]_[T-1C]_H3.2_A3.1_F3.1_T3.2_[T9C]_[A10G] (ssRNA)
RNA: B1 RNA with G29C, C39G
B8: Ib_S1_P5E.1_K5.1_C5.1_H5.1_[T1C]_A5.1_F5.1_[T9A]_T5.1 (ssRNA)
RNA: UCUCUUCGUAUUAUAAUCUCUU
B9: Id_ii_S2_P3E.3_K3.2_C3.2_[C-2A]_[T-1C]_H3.2_A3.1_F3.1_T3.2_[T9C]_[A10C] (ssRNA)
RNA: B1 RNA with G29C
B10: Id_ii_S2_P3E.3_K3.2_C3.2_[C-2A]_[T-1C]_H3.2_A3.1_F3.1_T3.2_[T9C]_[A10T] (ssRNA)
RNA: B1 RNA with G29C, C39U
B11: Id_ii_S2_P3E.3_K3.2_C3.2_[C-2A]_[T-1C]_H3.2_A3.1_F3.1_T3.2_[T9A] (ssRNA)
RNA: B1 RNA with G29C, C38A, C39A
B12: Id_ii_S2_P3E.3_K3.2_C3.2_[C-2A]_[T-1C]_H3.2_A3.1_F3.1_T3.2_[A10C] (ssRNA)
RNA: B1 RNA with G29C, C38U
B13: Id_ii_S2_P3E.3_K3.2_C3.2_[C-2A]_[T-1A]_H3.2_A3.1_F3.1_T3.2_[T9G]_[A10C] (ssRNA)
RNA: B1 RNA with G29A, C38G
B14: Id_ii_S2_P3E.3_K3.2_C3.2_[C-2A]_[T-1A]_H3.2_A3.1_F3.1_T3.2_[T9A]_[A10G] (ssRNA)
RNA: B1 RNA with G29A, C38A, C39G
B15: Id_ii_S2_P3E.3_K3.2_C3.2_[C-2A]_[T-1A]_H3.2_A3.1_F3.1_T3.2_[A10T] (ssRNA)
RNA: B1 RNA with G29A, C38U, C39U
B16: Id_ii_S2_P3E.3_K3.2_C3.2_[C-2A]_H3.2_A3.1_F3.1_T3.2_[T9C]_[A10G] (ssRNA)
RNA: B1 RNA with G29U, C39G
B17: Id_ii_S2_P3E.3_K3.2_C3.2_[C-2A]_H3.2_A3.1_F3.1_T3.2_[T9C]_[A10C] (ssRNA)
RNA: B1 RNA with G29U
B18: Id_ii_S2_P3E.3_K3.2_C3.2_[C-2A]_H3.2_A3.1_F3.1_T3.2_[T9C]_[A10T] (ssRNA)
RNA: B1 RNA with G29U, C39U
B19: Ib_S1_P5E.1_K5.1_C5.1_H5.1_[T1A]_A5.1_F5.1_[T9A]_T5.1 (ssRNA)
RNA: UCUCUUAGUAUUAUAAUCUCUU
B20: Id_ii_S2_P3E.3_K3.2_C3.2_[C-2A]_H3.2_A3.1_F3.1_T3.2_[T9A]_[A10T] (ssRNA)
RNA: B1 RNA with G29U, C38A, C39U
B21: Id_ii_S2_P3E.3_K3.2_C3.2_[C-2A]_H3.2_A3.1_F3.1_T3.2_[T9A] (ssRNA)
RNA: B1 RNA with G29U, C38A, C39A
B22: Id_ii_S2_P3E.3_K3.2_C3.2_[T-1G]_H3.2_A3.1_F3.1_T3.2_[T9G]_[A10C] (ssRNA)
RNA: B1 RNA with A28C, C38G
B23: Id_ii_S2_P3E.3_K3.2_C3.2_[T-1G]_H3.2_A3.1_F3.1_T3.2_[T9C]_[A10C] (ssRNA)
RNA: B1 RNA with A28C
B24: Id_ii_S2_P3E.3_K3.2_C3.2_[T-1G]_H3.2_A3.1_F3.1_T3.2_[T9A]_[A10G] (ssRNA)
RNA: B1 RNA with A28C, C38A, C39G
B25: Id_ii_S2_P3E.3_K3.2_C3.2_[T-1G]_H3.2_A3.1_F3.1_T3.2_[T9A] (ssRNA)
RNA: B1 RNA with A28C, C38A, C39A
B26: Id_ii_S2_P3E.3_K3.2_C3.2_[T-1G]_H3.2_A3.1_F3.1_T3.2 (ssRNA)
RNA: B1 RNA with A28C, C38U, C39A
B27: Id_ii_S2_P3E.3_K3.2_C3.2_[T-1C]_H3.2_A3.1_F3.1_T3.2_[T9G]_[A10T] (ssRNA)
RNA: B1 RNA with A28C, G29C, C38G, C39U
B28: Id_ii_S2_P3E.3_K3.2_C3.2_[T-1C]_H3.2_A3.1_F3.1_T3.2_[T9C]_[A10C] (ssRNA)
RNA: B1 RNA with A28C, G29C
B29: Id_ii_S2_P3E.3_K3.2_C3.2_[T-1C]_H3.2_A3.1_F3.1_T3.2_[T9C]_[A10T] (ssRNA)
RNA: B1 RNA with A28C, G29C, C39U
B30: Ib_S1_P5E.1_K5.1_C5.1_H5.1_[G2A]_A5.1_F5.1_[T9C]_T5.1 (ssRNA)
RNA: UCUCUUUAUAUUAUCAUCUCUU
B31: Id_ii_S2_P3E.3_K3.2_C3.2_[T-1C]_H3.2_A3.1_F3.1_T3.2_[T9C] (ssRNA)
RNA: B1 RNA with A28C, G29C, C39A
B32: Id_ii_S2_P3E.3_K3.2_C3.2_[T-1C]_H3.2_A3.1_F3.1_T3.2_[T9A]_[A10G] (ssRNA)
RNA: B1 RNA with A28C, G29C, C38A, C39G
B33: Id_ii_S2_P3E.3_K3.2_C3.2_[T-1C]_H3.2_A3.1_F3.1_T3.2_[T9A]_[A10C] (ssRNA)
RNA: B1 RNA with A28C, G29C, C38A
B34: Id_ii_S2_P3E.3_K3.2_C3.2_[T-1C]_H3.2_A3.1_F3.1_T3.2_[T9A]_[A10T] (ssRNA)
RNA: B1 RNA with A28C, G29C, C38A, C39U
B35: Id_ii_S2_P3E.3_K3.2_C3.2_[T-1C]_H3.2_A3.1_F3.1_T3.2_[T9A] (ssRNA)
RNA: B1 RNA with A28C, G29C, C38A, C39A
B36: Id_ii_S2_P3E.3_K3.2_C3.2_[T-1C]_H3.2_A3.1_F3.1_T3.2 (ssRNA)
RNA: B1 RNA with A28C, G29C, C38U, C39A
B37: Id_ii_S2_P3E.3_K3.2_C3.2_[T-1A]_H3.2_A3.1_F3.1_T3.2_[T9G]_[A10T] (ssRNA)
RNA: B1 RNA with A28C, G29A, C38G, C39U
B38: Id_ii_S2_P3E.3_K3.2_C3.2_[T-1A]_H3.2_A3.1_F3.1_T3.2_[T9C]_[A10C] (ssRNA)
RNA: B1 RNA with A28C, G29A
B39: Id_ii_S2_P3E.3_K3.2_C3.2_[T-1A]_H3.2_A3.1_F3.1_T3.2_[T9C] (ssRNA)
RNA: B1 RNA with A28C, G29A, C39A
B40: Id_ii_S2_P3E.3_K3.2_C3.2_[T-1A]_H3.2_A3.1_F3.1_T3.2_[T9A]_[A10G] (ssRNA)
RNA: B1 RNA with A28C, G29A, C38A, C39G
B41: Ib_S1_P5E.1_K5.1_C5.1_H5.1_[G2A]_A5.1_F5.1_[T9A]_T5.1 (ssRNA)
RNA: UCUCUUUAUAUUAUAAUCUCUU
B42: Id_ii_S2_P3E.3_K3.2_C3.2_[T-1A]_H3.2_A3.1_F3.1_T3.2_[T9A]_[A10C] (ssRNA)
RNA: B1 RNA with A28C, G29A, C38A
B43: Id_ii_S2_P3E.3_K3.2_C3.2_[T-1A]_H3.2_A3.1_F3.1_T3.2_[A10C] (ssRNA)
RNA: B1 RNA with A28C, G29A, C38U
B44: Id_ii_S2_P3E.3_K3.2_C3.2_H3.2_A3.1_F3.1_T3.2_[T9C]_[A10G] (ssRNA)
RNA: B1 RNA with A28C, G29U, C39G
B45: Id_ii_S2_P3E.3_K3.2_C3.2_H3.2_A3.1_F3.1_T3.2_[T9C]_[A10C] (ssRNA)
RNA: B1 RNA with A28C, G29U
B46: Id_ii_S2_P3E.3_K3.2_C3.2_H3.2_A3.1_F3.1_T3.2_[T9C] (ssRNA)
RNA: B1 RNA with A28C, G29U, C39A
B47: Id_ii_S2_P3E.3_K3.2_C3.2_H3.2_A3.1_F3.1_T3.2_[T9A]_[A10C] (ssRNA)
RNA: B1 RNA with A28C, G29U, C38A
B48: Id_ii_S2_P3E.3_K3.2_C3.2_H3.2_A3.1_F3.1_T3.2_[T9A]_[A10T] (ssRNA)
RNA: B1 RNA with A28C, G29U, C38A, C39U
B49: Id_ii_S2_P3E.3_K3.2_C3.2_H3.2_A3.1_F3.1_T3.2_[T9A] (ssRNA)
RNA: B1 RNA with A28C, G29U, C38A, C39A
B50: Id_ii_S2_P3E.3_K3.2_C3.2_H3.2_A3.1_F3.1_T3.2_[A10G] (ssRNA)
RNA: B1 RNA with A28C, G29U, C38U, C39G
B51: Id_ii_S2_P3E.3_K3.2_C3.2_H3.2_A3.1_F3.1_T3.2_[A10C] (ssRNA)
RNA: B1 RNA with A28C, G29U, C38U
B52: Ib_S1_P5E.1_K5.1_C5.1_H5.1_[T3C]_A5.1_F5.1_[T9C]_T5.1 (ssRNA)
RNA: UCUCUUUGCAUUAUCAUCUCUU
B53: Id_ii_S2_P3E.3_K3.2_C3.2_H3.2_A3.1_F3.1_T3.2_[A10T] (ssRNA)
RNA: B1 RNA with A28C, G29U, C38U, C39U
B54: Id_ii_S2_P3E.3_K3.2_C3.2_H3.2_A3.1_F3.1_T3.2 (ssRNA)
RNA: B1 RNA with A28C, G29U, C38U, C39A
B55: Id_ii_S2_P3E.4_K3.3_C3.2_[C-2G]_[T-1C]_H3.3_A3.1_F3.1_T3.2_[T9C]_[A10G] (ssRNA)
RNA: B1 RNA with A28G, G29C, U30A, A31C, U32A, A33C, C39G
B56: Id_ii_S2_P3E.4_K3.3_C3.2_[C-2G]_[T-1C]_H3.3_A3.1_F3.1_T3.2_[T9C] (ssRNA)
RNA: B1 RNA with A28G, G29C, U30A, A31C, U32A, A33C, C39A
B57: Id_ii_S2_P3E.4_K3.3_C3.2_[C-2G]_[T-1C]_H3.3_A3.1_F3.1_T3.2_[T9A]_[A10C] (ssRNA)
RNA: B1 RNA with A28G, G29C, U30A, A31C, U32A, A33C, C38A
B58: Id_ii_S2_P3E.4_K3.3_C3.2_[C-2G]_[T-1C]_H3.3_A3.1_F3.1_T3.2_[T9A] (ssRNA)
RNA: B1 RNA with A28G, G29C, U30A, A31C, U32A, A33C, C38A, C39A

Biological target: T1, PUF4 RNA-binding domain (Saccharomyces cerevisiae, UniProt P25339 537-888)
T1 sequence: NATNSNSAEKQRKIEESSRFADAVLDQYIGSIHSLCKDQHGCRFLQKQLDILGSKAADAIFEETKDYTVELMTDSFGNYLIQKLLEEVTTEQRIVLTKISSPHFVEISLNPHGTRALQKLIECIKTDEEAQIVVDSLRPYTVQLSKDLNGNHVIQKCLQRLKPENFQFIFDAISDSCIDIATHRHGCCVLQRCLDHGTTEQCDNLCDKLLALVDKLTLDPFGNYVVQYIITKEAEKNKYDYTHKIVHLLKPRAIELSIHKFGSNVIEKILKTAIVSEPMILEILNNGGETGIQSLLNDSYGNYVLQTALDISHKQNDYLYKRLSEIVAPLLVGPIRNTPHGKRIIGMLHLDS
Test: Mg; RNA-MaP; 20 mM Na-HEPES pH 7.4, 30 mM KOAc, 0.75 mM MgCl2, 0.1% Tween-20, 5% glycerol, 0.1 mg/mL BSA, 2 mM DTT; 25 C; 0.0125-409.6 nM protein
Conditions: tags: N-His6-TEV cleaved; C-SNAP kept, Cy3B-labelled; label: tethered on chip by stalled RNA polymerase

Binder	Kd [nM]
B1	1900
B2	1960
B3	199
B4	809
B5	407
B6	1590
B7	> 2300
B8	691
B9	245
B10	103
B11	290
B12	183
B13	701
B14	1010
B15	720
B16	713
B17	322
B18	214
B19	614
B20	531

Binder	Kd [nM]
B21	693
B22	108
B23	863
B24	573
B25	190
B26	160
B27	718
B28	245
B29	120
B30	641
B31	84.9
B32	739
B33	122
B34	93.1
B35	251
B36	42.2
B37	447
B38	177
B39	198
B40	1090

Binder	Kd [nM]
B41	124
B42	218
B43	227
B44	292
B45	115
B46	108
B47	112
B48	121
B49	401
B50	83.8
B51	83.2
B52	> 2300
B53	72.5
B54	54.4
B55	817
B56	78
B57	31.9
B58	38.5
